Laboratory results reported in patent US20230143091A1 (SORRISO PHARMACEUTICALS, published 2023).

T1: IL-7R on human lymphocytes (hPBMCs) (human, UniProt P16871 21-459)
T1 sequence (looked up): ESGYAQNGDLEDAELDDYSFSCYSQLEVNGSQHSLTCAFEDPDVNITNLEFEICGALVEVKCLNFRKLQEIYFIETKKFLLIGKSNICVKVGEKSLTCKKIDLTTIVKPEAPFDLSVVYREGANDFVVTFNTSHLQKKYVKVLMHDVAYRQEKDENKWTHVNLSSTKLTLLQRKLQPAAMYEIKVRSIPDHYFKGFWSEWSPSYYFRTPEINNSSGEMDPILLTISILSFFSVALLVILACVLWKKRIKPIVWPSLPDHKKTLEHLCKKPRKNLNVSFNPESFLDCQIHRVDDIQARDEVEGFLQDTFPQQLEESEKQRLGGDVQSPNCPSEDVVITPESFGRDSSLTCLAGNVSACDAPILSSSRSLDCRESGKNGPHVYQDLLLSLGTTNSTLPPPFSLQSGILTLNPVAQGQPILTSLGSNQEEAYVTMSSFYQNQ

T2: IL-7R (as used in the IL-7/IL-7R neutralisation ELISA) (UniProt P16871 21-239, limits assumed)
T2 sequence (looked up): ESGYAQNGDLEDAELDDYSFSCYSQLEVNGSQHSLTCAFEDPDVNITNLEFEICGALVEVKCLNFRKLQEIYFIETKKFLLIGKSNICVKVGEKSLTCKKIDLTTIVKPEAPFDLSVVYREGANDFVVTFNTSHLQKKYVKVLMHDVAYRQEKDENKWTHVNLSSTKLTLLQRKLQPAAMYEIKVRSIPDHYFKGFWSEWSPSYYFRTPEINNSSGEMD


What was measured:
human TNFα = molecular target: T3, human TNFα (human, UniProt P01375 77-233); assay: competition ELISA on plate-coated human TNFα; competitor 2 nM biotinylated adalimumab, detected with ExtrAvidin-HRP
T3 construct: also called TNF-alpha; Tumour necrosis factor-alpha
Experimental: ELISA plates were coated with 100 ng/mL human TNFα in 250 μg/mL bovine serum albumin (BSA) in phosphate buffered saline (1×PBS) and blocked with 1% BSA in 1×PBS.

[1] = molecular target: T1, IL-7R on human lymphocytes (hPBMCs); assay: cell-based or functional assay
[2] = molecular target: T2, IL-7R (as used in the IL-7/IL-7R …); assay: IL-7/IL-7R neutralisation ELISA; blocked ligand IL-7, bound IL-7 detected with biotinylated anti-hIL-7 and Extravidin-HRP

T3 sequence (P01375 77-233 limits assumed): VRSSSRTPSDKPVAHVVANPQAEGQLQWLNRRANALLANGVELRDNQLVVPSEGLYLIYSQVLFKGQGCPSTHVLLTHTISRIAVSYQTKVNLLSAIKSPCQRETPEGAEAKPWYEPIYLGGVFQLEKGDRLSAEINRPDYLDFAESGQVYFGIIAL

IC50 (read off the curve) [2] | Binder | other results
– | ID-38F (VHH) VHH: DVQLVESGGGLVQPGGSLKLSCAASGFDFSSHWMYWVRQAPGKELEWLSEINTNGLITHYGDSVKGRFTVSRNNAANKMYLELTRLEPEDTALYYCARNQHGLNKGQGTQVTVSS | binding result (human TNFα): binds
– | V7R-2E9 (VHH) VHH: EVQLVESGGGLVQAGGSLRLSCESSISTFSSDAMGWFRQAPGKEREFLAAIGWSGAVTHYSDSVQGRFTISRDNAKNTVYLQMNSLKSEDTGRYYCAEDYDTDVWQYWGQGTQVTVSS | IL-7 induced pSTAT5 in hPBMCs EC50 nM [1]: 2.86 nM
0.1 to 0.2 nM | ID-A62U (VHH, Produced in S. cerevisiae; Comprises E1D and R45L mutations relative to ID-A40U) VHH: DVQLVESGGGLVQAGGSLRLSCESSISTFSSDAMGWFRQAPGKELEFLAAIGWSGAVTHYSDSVKGRFTISRDNAKNTVYLQMNSLRAEDTGRYYCAEDYDTDVWQYWGQGTQVTVSS | –
~0.2 nM | FU3K bihead (bispecific antibody, Produced in S. cerevisiae; also called pre-digestion FU3K; heterobihead) DVQLVESGGGLVQPGGSLKLSCAASGFDFSSHWMYWVRQAPGKELEWLSEINTNGLITHYGDSVKGRFTVSRNNAANKMYLELTRLEPEDTALYYCARNQHGLNKGQGTQVTVSSGGGGSGGGGSKGGGGSGGGGSEVQLVESGGGLVQAGGSLRLSCESSISTFSSDAMGWFRQAPGKELEFLAAIGWSGAVTHYSDSVKGRFTISRDNAKNTVYLQMNSLRAEDTGRYYCAEDYDTDVWQYWGQGTQVTVSS | –
~0.4 nM | FU3K after trypsin digestion (other, A mixture of two separate monomers, not a complex; also called post-digestion FU3K; ID-38F and ID-A62U monomer arms released from FU3K) VHH 1: DVQLVESGGGLVQPGGSLKLSCAASGFDFSSHWMYWVRQAPGKELEWLSEINTNGLITHYGDSVKGRFTVSRNNAANKMYLELTRLEPEDTALYYCARNQHGLNKGQGTQVTVSSGGGGSGGGGSK VHH 2: GGGGSGGGGSEVQLVESGGGLVQAGGSLRLSCESSISTFSSDAMGWFRQAPGKELEFLAAIGWSGAVTHYSDSVKGRFTISRDNAKNTVYLQMNSLRAEDTGRYYCAEDYDTDVWQYWGQGTQVTVSS | –
